Patent US20080176793A1, “UPREGULATING ACTIVITY OR EXPRESSION OF BDNF TO MITIGATE COGNITIVE IMPAIRMENT IN ASYMPTOMATIC HUNTINGTON'S SUBJECTS” (THE REGENTS OF THE UNIVERSITY OF CALIFORNIA, priority 2006, published 2008)

What was measured:
Assay type in all cases: cell-based
[1] = tested on: hippocampal slices from Hdh^Q111 mice; assay: Within-train facilitation of theta burst responses in hippocampal slices; conditions: BDNF-treated Hdh^Q111 slices
Source text: Events that occur during the two-second period of TBS can potently influence the threshold, initial expression, magnitude, and stability of LTP (Arai and Lynch (1992) Eur. J. Neurosci. 4: 411-419; Larson et al. (1986) Brain Res. 368: 347-350). […] In marked contrast, the facilitation of the second and subsequent burst responses, each a composite of four closely spaced fEPSPs, was greatly attenuated in Hdh^Q111 slices (FIG. 2, panel a, e.g. burst 4). The facilitation effect was quantified by expressing the areas of burst responses 2-10 as fractions of the area of the first burst response.
(§1) Acute hippocampal slices were prepared, as described elsewhere (Kramar et al. (2004) J. Neurosci. 24: 5151-5161), from 8 week old Hdh^Q111, 24 week old Hdh^Q92 and age-matched WT mice and maintained at 32° C. in an interface chamber of local design. Synaptic responses (fEPSPs) were generated by stimulating the Schaffer-commissural afferents to the apical dendrites of field CA1b pyramidal cells using stimulating electrodes positioned in fields CA1a and CA1c. For baseline recording, fEPSPs were set to 30% of the maximum responses and low frequency stimulation (3 pulses/min) was delivered. The slope of the descending phase of the fEPSP was used as a measure of response size with all values normalized to a 15 min baseline period collected 1-2 h after slice preparation. LTP was induced with a single TBS train (ten bursts of 4 pulses at 100 Hz, inter-burst interval of 200 ms). BDNF (2 nM) was prepared and delivered to slices as described previously (Menalled (2005) NeuroRx 2: 465-470).
(§2) For all electrophysiology experiments, results are summarized in the text as a percent increase in responses from baseline. Data are presented as mean ±s.d. in the text and mean ±s.e.m. in the figures.

[2] = tested on: hippocampal slices from Hdh^Q111 mice; assay: TBS-induced long-term potentiation (fEPSP slope) in acute hippocampal slices, field CA1
Protocol: as §1, §2

[3] = tested on: hippocampal slices from Hdh^Q111 mice; assay: In situ rhodamine-phalloidin labeling of F-actin (TBS-induced actin polymerization in dendritic spines); conditions: BDNF 2 nM, Hdh^Q111 slices after TBS, n=13, mean ±s.d.
Protocol: Physiological recording and delivery of TBS or low frequency stimulation was performed as described above. Starting 20 min after TBS, rhodamine-phalloidin (6 μM/2-4 μl; from Sigma, St. Louis, Mo., or Invitrogen, Carlsbad, Calif.) was applied topically (Kramar et al. (2006) Proc. Natl. Acad. Sci., USA, 103: 5579-5784) via micropipette 3 times separated by 3 min. To test the effects of BDNF on actin polymerization, BDNF (2 nM) or artificial cerebral spinal fluid was delivered to WT and Hdh^Q111 slices via a reperfusion pump system (Cole-Palmer, Vernon Hills, Ill.) at 1 ml/min 1-2 h before recording. […]
Sections were examined with epifluorescence illumination using an Olympus AX70 photomicroscope. Quantitative analyses were carried out on three serial sections situated 20 to 80 μm below the surface of original slice. […] These images were then converted to grayscale and intensity levels were cropped at values determined for each experiment to visualize low-intensity labeling.
Labeled spine-like structures were measured and counted from a 550 μm^2 sampling zone in the proximal stratum radiatum between the two stimulating electrodes using in-house software described in detail previously (Kramar et al. (2006) Proc. Natl. Acad. Sci., USA, 103: 5579-5784; Lin et al. (2005) J. Neurosci. 25: 2062-2069). […]

B1: BDNF: the neurotrophin, Brain-Derived Neurotrophic Factor, delivered at 2 nM to hippocampal slices (protein, UniProt P23560 19-247, looked up)
Neurotrophic factor BDNF …: APMKEANIRGQGGLAYPGVRTHGTLESVNGPKAGSRGLTSLADTFEHVIEELLDEDQKVRPNEENNKDADLYTSRVMLSSQVPLEPPLLFLLEEYKNYLDAANMSMRVRRHSDPARRGELSVCDSISEWVTAADKKTAVDMSGGTVTVLEKVPVSKGQLKQYFYETKCNPMGYTKEGCRGIDKRHWNSQCRTTQSYVRALTMDSKKRIGWRFIRIDTSCVCTLTIKRGR
effect on responses to stimulation bursts in the theta train [1]: did not facilitate responses to any stimulation burst | burst 9 greater than burst 1 ([1]; mean ±s.d.): −5.8±9.3% | Facilitation of the second burst response ([1]; relative to burst 1, mean ±s.d.): 46.1±10.2% | effect on baseline transmission ([2]; BDNF 2 nM infused for 60 min, Hdh^Q111 or WT slices): did not detectably change baseline transmission | LTP compared with WT slices ([2]; BDNF 2 nM, Hdh^Q111 slices (FIG. 7, panel a)): not detectably different from WTs | percent potentiation 45 min after TBS ([2]; BDNF 2 nM, Hdh^Q111 slices, mean ±s.d.): 43.6±23.5% | LTP at 20 min post-TBS (percent increase in responses from baseline) ([2]; BDNF 2 nM, Hdh^Q111 slices, n=11, mean ±s.d.): 59.9±28.3% | potentiation at end of 60 min post-TBS recording ([2]; BDNF 2 nM, subgroup of Hdh^Q111 slices, n=4): stable potentiation was present at the end of recording | number of phalloidin-labeled spines in the high-intensity bins [3]: 40.5±39.3 per 550 μm^2
